The values that follow come from patent publication US20090136475A1 (FRAUNHOFER GESELLSCHAFT ZUR FORDERUNG DER ANGEWANDTEN …, published 2009).

Experiment [1] concerns the target CD30 molecule on the Hodgkin-derived CD30-positive cell line L540Cy (UniProt P28908). Nature of the experiment: cell-based or functional assay.
Experiment [2] addresses T1, CD30 molecule on the Hodgkin-derived CD30-positive cell line L540Cy (UniProt P28908 19-595, limits assumed).
T1 construct: whole, on cells; the cell lines are human-derived; also called CD30-positive cells
T1 sequence (looked up): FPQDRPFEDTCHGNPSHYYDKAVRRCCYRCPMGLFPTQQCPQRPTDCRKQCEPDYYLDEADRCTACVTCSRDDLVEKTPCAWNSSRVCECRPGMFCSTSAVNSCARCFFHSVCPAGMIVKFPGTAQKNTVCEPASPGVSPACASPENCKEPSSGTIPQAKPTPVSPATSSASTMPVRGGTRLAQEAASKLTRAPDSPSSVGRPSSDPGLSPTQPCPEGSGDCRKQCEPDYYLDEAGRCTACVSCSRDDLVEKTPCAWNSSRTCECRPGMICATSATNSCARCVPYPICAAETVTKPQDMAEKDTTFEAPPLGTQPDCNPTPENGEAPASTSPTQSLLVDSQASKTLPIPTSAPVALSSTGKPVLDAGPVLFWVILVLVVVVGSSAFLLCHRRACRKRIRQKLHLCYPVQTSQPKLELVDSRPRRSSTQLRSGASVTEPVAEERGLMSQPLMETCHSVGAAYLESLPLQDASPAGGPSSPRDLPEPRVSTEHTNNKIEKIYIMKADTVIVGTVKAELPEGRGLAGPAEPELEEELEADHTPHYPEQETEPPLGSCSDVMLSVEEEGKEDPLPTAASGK
Nature of the experiment: flow cytometry on L540Cy cells, detection by anti-penta-His and FITC goat-anti-mouse IgG. How it is done:
Cell binding activity of the recombinant complexes (immunokinases) expressed in E. coli BL21 Star™ (DE3) was evaluated using a FACSCalibur flow cytometry instrument and CellQuest software (Becton Dickinson, Heidelberg, Germany). Cells were stained with recombinant protein as described (25). Briefly, ten thousand events were collected for each sample, and analyses of Intact cells were performed using appropriate scatter gates to exclude cellular debris and aggregates. 5×10⁵ cells were incubated for 1 h on ice with 50 μl of bacterial protein extract at a concentration of 30-40 μg/ml or 100 μl of the immunokuinase containing supernatants respectively. The cells were washed with PBS buffer containing 0.2% w/v BSA and 0.05% w/v sodium azide (PBA) and then incubated for 30 min with anti-penta-His moab (Qiagen) diluted 1:2 in PBA buffer. Cells were washed and incubated with fluorescein-iso-thiocyanate (FITC)-labeled goat-anti-mouse IgG (DAKO Diagnostica, Hamburg, Germany) for 1 h at 4° C. After a final wash, the cells were treated with 2 μl 6.25 mg/ml propidiumiodide and subsequently analyzed on a FACScalibur (Becton Dickison, Heidelberg, Germany).

As for “recombinant complex (immunokinase) pMS-(L-DAPk2-Ki-4)-III/G, protein L-DAPk2-Ki-4-MH”, in experiment [1], the calculated median IC50, growth inhibition of L540Cy cells, XTT-based colorimetric assay is 0.004 to 0.035 µg/mL.

B1: recombinant complex (immunokinase) pMT-Ki-4(scFv)-eEF-2K (other)
chain: MGHHHHHHHHHHSSGHIDDDDKHMKLMAQPAMAQVKLQESGTELAKPGAAVKMSCKASGYTFTDYWMHWVKQRPGQGLEWIGYINPNTAYTDYNQKFKDKATLTADKSSSTAYMQLRSLTSEDSAVYYCAKKTTQTTWGFPFWGQGTTVTVSSGGGGSGGGGSGGGGSDIVLTQSPKSMAMSVGERVTLSCKASENVDSFVSWYQQKPGQSPKLLIYGASNRYTGVPDRFAGSGSGRDFTLTISSVQAEDLADYHCGQNYRYPLTFGAGTKLEIKRAAAELGGGGSMADEDLIFRLEGVDGGQSPRAGHDGDSDGDSDDEEGYFICPITDDPSSNQNVNSKVNKYYSNLTKSERYSSSGSPANSFHFKEAWKHAIQKAKHMPDPWAEFHLEDIATERATRHRYNAVTGEWLDDEVLIKMASQPFGRGAMRECFRTKKLSNFLHAQQWKGASNYVAKRYIEPVDRDVYFEDVRLQMEAKLWGEEYNRHKPPKQVDIMQMCIIELKDRPGKPLFHLEHYIEGKYIKYNSNSGFVRDDNIRLTPQAFSHFTFERSGHQLIVVDIQGVGDLYTDPQIHTETGTDFGDGNLGVRGMALFFYSHACNRICESMGLAPFDLSPRERDAVNQNTKLLQSAKTILRGTEEKCGSPRVRTLSGSRPPLLRPLSENSGDENMSDVTFDSLPSSPSSATPHSQKLDHLHWPVFSDLDNMASRDHDHLDNHRESENSGDSGYPSEKRGELDDPEPREHGHSYSNRKYESDEDSLGSSGRVCVEKWNLLNSSRLHLPRASAVALEVQRLNALDLEKKIGKSILGKVHLAMVRYHEGGRFCEKGEEWDQESAVFHLEHAANLGELEAIVGLGLMYSQLPHHILADVSLKETEENKTKGFDYLLKAAEAGDRQSMILVARAFDSGQNLSPDRCQDWLEALHWYNTALEMTDCDEGGEYDGMQDEPRYMMLAREAEMLFTGGYGLEKDPQRSGDLYTQAAEAAMEAMKGRLANQYYQKAEEAWAQMEE
notes: Single-chain fusion: pelB signal peptide, enterokinase-cleavable His10 tag, anti-CD30 Ki-4 scFv, eukaryotic elongation factor-2 kinase; It was expressed in the periplasm of E. coli BL21 Star (DE3) and purified by IMAC and SEC
B1: the binding result in experiment [2] is on record as “binds”.
